Here are results for 14 molecules from paper PMC11704248, “Alternative splicing in the DBD linker region of p63 modulates binding to DNA and iASPP in vitro” (Cell Death & Disease, 2025).

Data set [1] has as its target iASPP C-terminal domain (CTD) (UniProt Q8WUF5). Description: ITC; peptide titrated to the CTD or SH3 domain; VP-ITC; 25 mM HEPES pH 7.5, 150 mM NaCl, 500 µM TCEP; single-site binding model (AB hetero association). On the technique in general: ITC needs no label: the signal is the heat of the interaction.
The target in data set [2] is iASPP SH3 (Homo sapiens) (UniProt Q8WUF5). Conditions: cited from earlier work.
Data set [3] deals with iASPP CTD with N813 and Y814 mutated (UniProt Q8WUF5). Description: not stated; affinities of peptides for iASPP CTD shown in Supplementary Fig. S5B, C, E; the text does not name the method.
The subject of data set [4] is p63 DBD-TD WT. Description: ELISA. Particulars: ELISA: DPBS, 0.1% Tween-20, 10% Superblock, RT, 1 h; DNA pull-down: 50 mM Tris pH 8.0, 150 mM NaCl, 0.1% Tween-20, 4 C, 3 h.
Data set [5] deals with T1, iASPP CTD (UniProt Q8WUF5 625-828).
T1 chain: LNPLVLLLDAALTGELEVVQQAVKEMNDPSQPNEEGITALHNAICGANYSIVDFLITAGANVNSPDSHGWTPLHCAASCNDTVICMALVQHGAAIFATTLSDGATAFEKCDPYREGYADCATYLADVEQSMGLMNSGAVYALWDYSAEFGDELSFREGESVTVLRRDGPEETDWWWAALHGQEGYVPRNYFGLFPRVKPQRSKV
Description: ITC.

Data set [6] deals with T2, ASPP2 CTD (UniProt Q13625 925-1128).
T2 chain: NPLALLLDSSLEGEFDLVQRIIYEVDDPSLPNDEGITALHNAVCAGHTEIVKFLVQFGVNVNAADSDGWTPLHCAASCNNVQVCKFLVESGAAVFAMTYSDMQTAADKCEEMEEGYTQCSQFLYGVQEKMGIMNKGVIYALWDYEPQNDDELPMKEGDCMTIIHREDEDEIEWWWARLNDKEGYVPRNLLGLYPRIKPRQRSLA
Description: ITC.

The target in data set [7] is iASPP CTD (UniProt Q8WUF5). The experiment in a line: ITC; peptide or DBD titrated to ASPP CTD; VP-ITC; 25 mM HEPES pH 7.5, 150 mM NaCl, 500 µM TCEP; AB hetero association (single-site) model.
In data set [8] the target is iASPP CTD (UniProt Q8WUF5). Description: NMR titration; unlabelled p63 linker peptide (up to 500 µM) with 100 µM 15N-iASPP CTD; 288 K; 25 mM HEPES pH 7.0, 50 mM NaCl, 5 mM DTT; KD from CSPs of selected residues of the SH3 domain, one-site model.
In data set [9] the target is T3, iASPP C-terminal domain (CTD) (UniProt Q8WUF5 625-828).
T3 construct: iASPP C-terminal domain (four ankyrin repeats and SH3 domain); The limits 625-828 are printed for the CTD in the crystallisation fusion; no separate limits are printed for the CTD used in ITC and NMR; For NMR the same construct was 15N-labelled (M9 medium); also called iASPP CTD; source: E. coli BL21(DE3) Rosetta, purified (IMAC, TEV cleavage, reverse IMAC, ion exchange, SEC); not shown: His10, …
T3 sequence (looked up): T1 chain
Description: ITC; peptide titrated to the CTD or SH3 domain; VP-ITC; 25 mM HEPES pH 7.5, 150 mM NaCl, 500 µM TCEP; single-site binding model (AB hetero association). Conditions: both partners purified.

Data set [10] addresses T4, iASPP CTD N813A Y814A double mutant (UniProt Q8WUF5 625-828, N813A | Y814A).
T4 construct: iASPP C-terminal domain with N813A and Y814A; limits as for the iASPP CTD (amino acids 625-828, printed for the crystallised fusion); also called iASPP NY; N813A Y814A iASPP double mutant; source: E. coli BL21(DE3) Rosetta, purified (IMAC, TEV cleavage, reverse IMAC, ion exchange, SEC); not shown: His10, N-terminal, cleaved
T4 sequence (looked up): T1 chain with N189A, Y190A
The data set is described as above. Conditions: both partners purified.

Data set [11] addresses T5, iASPP CTD (UniProt Q8WUF5 625-828).
T5 construct: iASPP, C-terminal domain (CTD: ankyrin repeats and SH3 domain), amino acids 625-828; In the crystal structure this stretch stood fused behind the p63 peptide; also called iASPP CTD (amino acids 625-828); 15N-labelled iASPP CTD; source: E. coli BL21(DE3) Rosetta, purified (IMAC, TEV cleavage, reverse IMAC, ion exchange, SEC); for NMR grown in M9 minimal medium (15N or 15N,13C labelled); not …
T5 sequence (looked up): T1 chain
The experiment in a line: not stated; affinities of peptides for iASPP CTD shown in Supplementary Fig. S5B, C, E; the text does not name the method. Particulars: both partners purified.

Data set [12] concerns the target T3, iASPP C-terminal domain (CTD). The experiment in a line: ITC; peptide titrated to the CTD or SH3 domain; VP-ITC; 25 mM HEPES pH 7.5, 150 mM NaCl, 500 µM TCEP; single-site binding model (AB hetero association). Particulars: both partners purified. The source holds these as a separate data set.

Residue numbers refer to the chain shown, from its start. Values joined by “and” are separate entries in the source; they are usually repeats but may differ in a detail not shown here. Equal entries are not always repeated.

As a reminder, the Kd is the constant that tells how readily two partners part at equilibrium. p63 linker acK336 peptide: the dissociation constant (Kd) in [1] is 94.3 µM.

In the case of iASPP, in [2], the Kd was 45 µM.

Consider “optimized p63 linker peptide (p63opt, 331-344)”, for which the Kd in data set [1] is 1.65 µM.

In [3], p63 linker peptide came in with a fold reduction of the affinity against wild-type iASPP CTD of 2 fold.

With p21 promoter RE 20 bp, the Kd in data set [4] turned out to be 0.115 µM.

In data set [1], p63 linker pT335 peptide yielded a dissociation constant (Kd) of 132 µM.

PPGSTKRALPNNTS (limits not given; taken as the region aligned to p63 331-344): the Kd came to 135 µM in [5] and 172 µM in data set [6].

With GDGTKRPFRQN [p63 linker peptide], the Kd in data set [6] was 288 µM; in data set [7] it was 90 µM; in data set [8], 64 to 105 µM.

B1: p63 linker peptide (331-344) (peptide)
peptide: NGDGTKRPFRQNTH
notes: p63 linker region between DBD and OD, residues 331-344; also called p63 peptide (331-344); p63 linker WT
Consider B1, for which the Kd in data set [9] was 148 µM and 70.1 µM; in data set [10], 186 µM.

B2: p63 DBD (domain or fragment)
chain: SPAIPSNTDYPGPHSFDVSFQQSSTAKSATWTYSTELKKLYCQIAKTCPIQIKVMTPPPQGAVIRAMPVYKKAEHVTEVVKRCPNHELSREFNEGQIAPPSHLIRVEGNSHAQYVEDPITGRQSVLVPYEPPQVGTEFTTVLYNFMCNSSCVGGMNRRPILIIVTLETRDGQVLGRRCFEARICACPGRDRKADEDSIRKQ
modifications: one Zn2+ bound; start from the paper's DBD constructs (123 + 39 = 162), end from the DNA_BIND feature (362 = paper 323)
On to B2, for which, in data set [6], the equilibrium dissociation constant (Kd) stood at 13.6 µM.

GDGPKRPFRQN displayed a Kd in data set [11] of 1.7 µM.

B3: p73 linker peptide (peptide)
chain: NGAASKRAFKQSPP
modifications: limits not given; taken as the region aligned to p63 331-344 (p63 K336 = p73 K327)
B3: the values for the dissociation constant Kd in data set [5] and in data set [6] were 33.8 µM and 92.9 µM, respectively.

B4: p53 linker peptide (peptide)
chain: PPGSTKRALPNNTS
modifications: limits not given; taken as the region aligned to p63 linker peptide 331-344 (p53 R248 = p63 R279, K305 = K336)
Regarding B4, the Kd in data set [9] came out at 55.2 µM.

In [12], NPGGRPITPPRNSA (peptide, UniProt P62136 313-326, looked up, also called PP1α (313-326)) [PP1α peptide (amino acids 313-326)] returned an equilibrium dissociation constant (Kd) of 0.186 µM.
